In PMC6391409, “A role for Vibrio vulnificus PecS during hypoxia” (Scientific Reports, 2019) one finds IC50, Kd and Ki data, which are given here for four compounds.

Read-outs that look alike come from different tables or passages of the source.

The subject of data set [1] is VvPecS (PecS) (Vibrio vulnificus YJ016). Put plainly: EMSA. The note with it: EMSA: 0.5 M Tris pH 8.0, 100 mM NaCl, 6% glycerol, 25 uM EDTA, 0.12% Brij-58, 50 ug BSA, 25 C, 20 min; footprint: 20 mM Tris pH 8.0, 50 mM NaCl, 5 mM MgCl2 …. On the technique in general: A gel shift assay detects complexes by their altered migration in electrophoresis.
Data set [2] shares this test system. The data set is described as follows: EMSA. The note with it: EMSA: 0.5 M Tris pH 8.0, 100 mM NaCl, 6% glycerol, 25 uM EDTA, 0.12% Brij-58, 50 ug BSA, 25 C, 20 min; footprint: 20 mM Tris pH 8.0, 50 mM NaCl, 5 mM MgCl2 …. This is another data set of the same source.
Data set [3] deals with T1, PecS (VvPecS) (Vibrio vulnificus, UniProt A0A3Q0KXQ7).
T1 construct: gene VV2_0325; His6-tagged VvPecS (BJE04_RS19600; old locus tag VVA0819), dimer
T1 sequence (A0A3Q0KXQ7 entry or part of it): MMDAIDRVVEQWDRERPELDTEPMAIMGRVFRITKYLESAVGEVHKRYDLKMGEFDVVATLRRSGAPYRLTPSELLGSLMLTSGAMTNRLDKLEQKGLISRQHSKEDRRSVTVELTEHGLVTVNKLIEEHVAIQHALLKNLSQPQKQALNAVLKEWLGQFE
The data set is described as follows: EMSA: attenuation of purified VvPecS binding to pecS-pecM intergenic DNA (IC50 […]); supported by SYPRO Orange thermal shift (Tm […] to […] °C).

Data set [4] deals with T1, PecS (VvPecS). The data set is described as above. This is another data set of the same source.

What is called IC50 is the concentration that gives 50% inhibition. What is called Kd is the equilibrium constant for the complex coming apart. A word on the Ki: it is the dissociation constant of the complex between target and ligand, obtained from inhibition or displacement.

iSM (pecS-pecM intergenic DNA) gave an IC50 in data set [1] of 1.5 mM. In data set [2], the half-inhibitory concentration (IC50) was 366 µM and the Kd was 0.3 nM.
Consider `O=c1[nH]c(=O)c2[nH]cnc2[nH]1` [xanthine], for which the inhibition constant (Ki) at PecS (VvPecS) [3] was determined as 60 ± 5 µM.
With `O=c1[nH]c(=O)c2[nH]c(=O)[nH]c2[nH]1` [urate], the inhibitory constant (Ki) at PecS (VvPecS) [4] stood at 226 ± 29 µM.
In turn, iNR (nsrR-nod intergenic DNA) yielded an equilibrium dissociation constant (Kd) in data set [2] of 218 nM.
